This note sets out measurements from the supplement of paper PMC10567573.

First the molecules themselves.
B1: ATE1 (parent)
chain: YGSFHQQYWLDGKIIAVGVIDILP
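Also: lentivirally expressed fusions sorted by FACS into six bins by GFP to DsRed ratio, PSI derived from sequencing read proportions per bin multiplied by bin number.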

The variants in the data set derive from B1. The experiment in a line: protein stability index of a GFP-peptide fusion (GPS, HEK-293T) (PSI 1-6); higher = more stable. The note with it: c terminus: a fixed tail appended.
YGSFHQMYWLDGKIIAVGVIDILP [Q7M]: the protein stability index came to 1.76.

As to YGTFHQQYWLDGKIIAVGVIDILP [S3T], the protein stability index turned out to be 2.22.

For the variant YGYFHQQYWLDGKIIAVGVIDILP [S3Y], the protein stability index turned out to be 2.74.

YGPFHQQYWLDGKIIAVGVIDILP [S3P]: the protein stability index worked out at 2.19.

For YGIFHQQYWLDGKIIAVGVIDILP [S3I], the protein stability index stood at 3.48.

Take YGWFHQQYWLDGKIIAVGVIDILP [S3W]: the protein stability index is 2.82.

As for YGEFHQQYWLDGKIIAVGVIDILP [S3E], the protein stability index was 1.34.

Take YGKFHQQYWLDGKIIAVGVIDILP [S3K]: the protein stability index was found to be 2.55.

As for YGDFHQQYWLDGKIIAVGVIDILP [S3D], the protein stability index was 4.93.

Take YGRFHQQYWLDGKIIAVGVIDILP [S3R]: the protein stability index amounted to 2.02.

In the case of YGHFHQQYWLDGKIIAVGVIDILP [S3H], the protein stability index is 2.96.

In the case of YGVFHQQYWLDGKIIAVGVIDILP [S3V], the protein stability index was found to be 3.33.

YGSFHQQYELDGKIIAVGVIDILP [W9E]: the protein stability index is 2.26.

As for YGSFHQQYILDGKIIAVGVIDILP [W9I], the protein stability index came out at 3.29.

As to YGSFHQQYALDGKIIAVGVIDILP [W9A], the protein stability index is 2.18.

As to YGSFHQQYLLDGKIIAVGVIDILP [W9L], the protein stability index was determined as 3.27.

For the variant YGSFHQQYVLDGKIIAVGVIDILP [W9V], the protein stability index is 3.47.

Take YGSFHQQYNLDGKIIAVGVIDILP [W9N]: the protein stability index stood at 1.9.

On to YGSFHQQYRLDGKIIAVGVIDILP [W9R], for which the protein stability index came out at 3.46.

On to YGSFHQQYSLDGKIIAVGVIDILP [W9S], for which the protein stability index is 2.48.

Regarding YGSFHQQYCLDGKIIAVGVIDILP [W9C], the protein stability index was 2.17.

With YGSFHQQYKLDGKIIAVGVIDILP [W9K], the protein stability index was 3.09.

Regarding YGSFHQQYDLDGKIIAVGVIDILP [W9D], the protein stability index stood at 2.53.

Take YGSFHQQYQLDGKIIAVGVIDILP [W9Q]: the protein stability index is 1.69.

Regarding YGSFHQQYMLDGKIIAVGVIDILP [W9M], the protein stability index was 1.98.

In the case of YGSFHQQYPLDGKIIAVGVIDILP [W9P], the protein stability index was 3.09.

Take YGSFHQQYHLDGKIIAVGVIDILP [W9H]: the protein stability index turned out to be 3.06.

On to YGSFHWQYWLDGKIIAVGVIDILP [Q6W], for which the protein stability index is 1.19.

As for YGSFHKQYWLDGKIIAVGVIDILP [Q6K], the protein stability index amounted to 3.09.

In the case of YGSFHGQYWLDGKIIAVGVIDILP [Q6G], the protein stability index was 2.41.

For YGSFHDQYWLDGKIIAVGVIDILP [Q6D], the protein stability index came to 2.55.

Take YGSFHYQYWLDGKIIAVGVIDILP [Q6Y]: the protein stability index was found to be 2.43.

Turning to YGSFHAQYWLDGKIIAVGVIDILP [Q6A], the protein stability index is 3.19.

For the variant YGSFHTQYWLDGKIIAVGVIDILP [Q6T], the protein stability index is 3.63.

As to YGSFHIQYWLDGKIIAVGVIDILP [Q6I], the protein stability index was 3.08.

For the variant YGSFHNQYWLDGKIIAVGVIDILP [Q6N], the protein stability index is 3.97.

As to YGSFHRQYWLDGKIIAVGVIDILP [Q6R], the protein stability index stood at 3.54.

For the variant YGSFHFQYWLDGKIIAVGVIDILP [Q6F], the protein stability index stood at 2.94.

For YGSFHHQYWLDGKIIAVGVIDILP [Q6H], the protein stability index amounted to 2.7.

For YGSFHSQYWLDGKIIAVGVIDILP [Q6S], the protein stability index stood at 2.86.

Consider YGSYHQQYWLDGKIIAVGVIDILP [F4Y], for which the protein stability index worked out at 4.54.

As to YGSDHQQYWLDGKIIAVGVIDILP [F4D], the protein stability index was found to be 2.95.

Turning to YGSPHQQYWLDGKIIAVGVIDILP [F4P], the protein stability index was 1.93.

For the variant YGSHHQQYWLDGKIIAVGVIDILP [F4H], the protein stability index was determined as 2.83.

In the case of YGSMHQQYWLDGKIIAVGVIDILP [F4M], the protein stability index turned out to be 2.76.

On to YGSQHQQYWLDGKIIAVGVIDILP [F4Q], for which the protein stability index came to 2.72.

Take YGSVHQQYWLDGKIIAVGVIDILP [F4V]: the protein stability index turned out to be 1.4.

For the variant YGSEHQQYWLDGKIIAVGVIDILP [F4E], the protein stability index was determined as 3.75.

For YGSIHQQYWLDGKIIAVGVIDILP [F4I], the protein stability index worked out at 2.92.

For YGSNHQQYWLDGKIIAVGVIDILP [F4N], the protein stability index was 3.28.

YGSSHQQYWLDGKIIAVGVIDILP [F4S]: the protein stability index was found to be 3.69.

Consider YGSWHQQYWLDGKIIAVGVIDILP [F4W], for which the protein stability index is 2.2.

For MGSFHQQYWLDGKIIAVGVIDILP [Y1M], the protein stability index was 1.87.

On to SGSFHQQYWLDGKIIAVGVIDILP [Y1S], for which the protein stability index is 4.07.

As to LGSFHQQYWLDGKIIAVGVIDILP [Y1L], the protein stability index worked out at 1.73.

As to FGSFHQQYWLDGKIIAVGVIDILP [Y1F], the protein stability index is 3.22.

For the variant NGSFHQQYWLDGKIIAVGVIDILP [Y1N], the protein stability index was 1.77.

CGSFHQQYWLDGKIIAVGVIDILP [Y1C]: the protein stability index turned out to be 3.63.

For HGSFHQQYWLDGKIIAVGVIDILP [Y1H], the protein stability index was 2.79.

As for KGSFHQQYWLDGKIIAVGVIDILP [Y1K], the protein stability index was found to be 3.54.

Take EGSFHQQYWLDGKIIAVGVIDILP [Y1E]: the protein stability index turned out to be 1.92.

As for YGSFHQQPWLDGKIIAVGVIDILP [Y8P], the protein stability index was 2.93.

With YGSFHQQNWLDGKIIAVGVIDILP [Y8N], the protein stability index amounted to 3.57.

Consider YGSFHQQWWLDGKIIAVGVIDILP [Y8W], for which the protein stability index was 2.58.

On to YGSFHQQHWLDGKIIAVGVIDILP [Y8H], for which the protein stability index worked out at 2.57.

In the case of YGSFHQQQWLDGKIIAVGVIDILP [Y8Q], the protein stability index turned out to be 3.04.

For YGSFHQQKWLDGKIIAVGVIDILP [Y8K], the protein stability index is 2.35.

YGSFHQQFWLDGKIIAVGVIDILP [Y8F]: the protein stability index came out at 3.62.

Consider YGSFHQQIWLDGKIIAVGVIDILP [Y8I], for which the protein stability index stood at 3.92.

For YGSFHQQDWLDGKIIAVGVIDILP [Y8D], the protein stability index worked out at 2.78.

Consider YGSFMQQYWLDGKIIAVGVIDILP [H5M], for which the protein stability index amounted to 1.77.

As for YGSFRQQYWLDGKIIAVGVIDILP [H5R], the protein stability index was 2.13.

As for YGSFYQQYWLDGKIIAVGVIDILP [H5Y], the protein stability index was found to be 3.26.

In the case of YGSFFQQYWLDGKIIAVGVIDILP [H5F], the protein stability index worked out at 2.61.

As to YGSFPQQYWLDGKIIAVGVIDILP [H5P], the protein stability index amounted to 2.32.

As to YGSFIQQYWLDGKIIAVGVIDILP [H5I], the protein stability index was found to be 1.49.

Consider YGSFDQQYWLDGKIIAVGVIDILP [H5D], for which the protein stability index worked out at 4.47.

Consider YGSFAQQYWLDGKIIAVGVIDILP [H5A], for which the protein stability index stood at 2.77.

For YGSFQQQYWLDGKIIAVGVIDILP [H5Q], the protein stability index worked out at 2.37.

YKSFHQQYWLDGKIIAVGVIDILP [G2K]: the protein stability index came to 2.49.

Take YPSFHQQYWLDGKIIAVGVIDILP [G2P]: the protein stability index turned out to be 3.53.

Regarding YMSFHQQYWLDGKIIAVGVIDILP [G2M], the protein stability index was 2.57.

In the case of YLSFHQQYWLDGKIIAVGVIDILP [G2L], the protein stability index is 1.66.

On to YNSFHQQYWLDGKIIAVGVIDILP [G2N], for which the protein stability index was 4.75.

With YESFHQQYWLDGKIIAVGVIDILP [G2E], the protein stability index was determined as 2.72.

With YCSFHQQYWLDGKIIAVGVIDILP [G2C], the protein stability index was found to be 2.8.

On to YISFHQQYWLDGKIIAVGVIDILP [G2I], for which the protein stability index turned out to be 3.05.

Consider YYSFHQQYWLDGKIIAVGVIDILP [G2Y], for which the protein stability index was found to be 3.14.

On to YQSFHQQYWLDGKIIAVGVIDILP [G2Q], for which the protein stability index is 2.66.

Consider YRSFHQQYWLDGKIIAVGVIDILP [G2R], for which the protein stability index was 3.47.

As to YTSFHQQYWLDGKIIAVGVIDILP [G2T], the protein stability index turned out to be 4.66.

On to YSSFHQQYWLDGKIIAVGVIDILP [G2S], for which the protein stability index worked out at 1.91.

As to YDSFHQQYWLDGKIIAVGVIDILP [G2D], the protein stability index was 2.58.

For YHSFHQQYWLDGKIIAVGVIDILP [G2H], the protein stability index worked out at 2.47.
